# Results: IntAct's records for PubMed 31570497
# B1: Envelopment polyprotein (Uukuniemi virus (strain S23)), P09613 (parent)
# chain: MVRTYLLLLLLCGPATPFFNHLMDVTRRLLDSSNATWQRDQPDTHRLSRLDAHVMSMLGVGSHIDEVSVNHSQHLHNFRSYNCEEGRRTLTMMDPKSGKFKRLKCNENQTLSKDCASCIEKKSSIMKSEHLVYDDAICQSDYSSPEAMPDHETHLCRIGPLHIQHCTHEAKRVQHVSWFWIDGKLRVYDDFSVSWTEGKFLSLFDCLNETSKDHNCNKAVCLEGRCSGDLQFCTEFTCSYAKADCNCKRNQVSGVAVVHTKHGSFMPECMGQSLWSVRKPLSKRSVTVQQPCMDCESDCKVDHILVIVRHFYPDHYQACLGSTCLTGRAKDKEFKIPFKMADRLSDSHFEIRIWDKERSNEYFLESRCESVDACAAITCWFCRANWANIHCFSKEQVLILVAVSSLCILLLASVLRALKVIATFTWKIIKPFWWILSLLCRTCSKRLNKRAERLKESIHSLEEGLNNVDEGPREQNNPARAVARPNVRQKMFNLTRLSPVVVGMLCLACPVESCSDSISVTASSQRCSTSSDGVNSCFVSTSSLLQVSPKGQESCLILKGPTGTAVDSIRIKTTDIKLECVRRDLYWVPRVTHRCIGTRRCHLMGACKGEACSEFKINDYSPEWGHEEELMAQLGWSYCVEQCGGALCQCFNMRPSCFYLRKTFSHLSQDAFNIYECSEWSYRINVLVSTNSTHSNLTLKLGVPDSIPHGLISLSSVSQPPAIAYSECFGEDLHGTKFHTVCNRRTDYTLGRIGEIQCPTKADALAVSKRCISSDSIIFSKVHKDSVDCQSSIIDPMTIRNRNKLPSTVGSVTFWPTETSVEAAIPDLASATMLIRLDGYTIQFRSDSNKCSPRFLSLSGCYNCEAGAKLELEHVTDFGTALGILECPSLGYTTYYEVKNTLEKSIRTMHLNGSHVEAKCYFRCPNSESQLTIRGELIYLFNDDIRHHNQTLSPGLSPKSGSGWDPFGWFKASWLRAIWAILGGTVSLIIGVVIIYMVFTLCLKVKKS
# Variants of: B1
# Details: with gbf1_human GBF1, Q92538
# gbf1_human GBF1, Q92538, sequence (Q92538 whole entry): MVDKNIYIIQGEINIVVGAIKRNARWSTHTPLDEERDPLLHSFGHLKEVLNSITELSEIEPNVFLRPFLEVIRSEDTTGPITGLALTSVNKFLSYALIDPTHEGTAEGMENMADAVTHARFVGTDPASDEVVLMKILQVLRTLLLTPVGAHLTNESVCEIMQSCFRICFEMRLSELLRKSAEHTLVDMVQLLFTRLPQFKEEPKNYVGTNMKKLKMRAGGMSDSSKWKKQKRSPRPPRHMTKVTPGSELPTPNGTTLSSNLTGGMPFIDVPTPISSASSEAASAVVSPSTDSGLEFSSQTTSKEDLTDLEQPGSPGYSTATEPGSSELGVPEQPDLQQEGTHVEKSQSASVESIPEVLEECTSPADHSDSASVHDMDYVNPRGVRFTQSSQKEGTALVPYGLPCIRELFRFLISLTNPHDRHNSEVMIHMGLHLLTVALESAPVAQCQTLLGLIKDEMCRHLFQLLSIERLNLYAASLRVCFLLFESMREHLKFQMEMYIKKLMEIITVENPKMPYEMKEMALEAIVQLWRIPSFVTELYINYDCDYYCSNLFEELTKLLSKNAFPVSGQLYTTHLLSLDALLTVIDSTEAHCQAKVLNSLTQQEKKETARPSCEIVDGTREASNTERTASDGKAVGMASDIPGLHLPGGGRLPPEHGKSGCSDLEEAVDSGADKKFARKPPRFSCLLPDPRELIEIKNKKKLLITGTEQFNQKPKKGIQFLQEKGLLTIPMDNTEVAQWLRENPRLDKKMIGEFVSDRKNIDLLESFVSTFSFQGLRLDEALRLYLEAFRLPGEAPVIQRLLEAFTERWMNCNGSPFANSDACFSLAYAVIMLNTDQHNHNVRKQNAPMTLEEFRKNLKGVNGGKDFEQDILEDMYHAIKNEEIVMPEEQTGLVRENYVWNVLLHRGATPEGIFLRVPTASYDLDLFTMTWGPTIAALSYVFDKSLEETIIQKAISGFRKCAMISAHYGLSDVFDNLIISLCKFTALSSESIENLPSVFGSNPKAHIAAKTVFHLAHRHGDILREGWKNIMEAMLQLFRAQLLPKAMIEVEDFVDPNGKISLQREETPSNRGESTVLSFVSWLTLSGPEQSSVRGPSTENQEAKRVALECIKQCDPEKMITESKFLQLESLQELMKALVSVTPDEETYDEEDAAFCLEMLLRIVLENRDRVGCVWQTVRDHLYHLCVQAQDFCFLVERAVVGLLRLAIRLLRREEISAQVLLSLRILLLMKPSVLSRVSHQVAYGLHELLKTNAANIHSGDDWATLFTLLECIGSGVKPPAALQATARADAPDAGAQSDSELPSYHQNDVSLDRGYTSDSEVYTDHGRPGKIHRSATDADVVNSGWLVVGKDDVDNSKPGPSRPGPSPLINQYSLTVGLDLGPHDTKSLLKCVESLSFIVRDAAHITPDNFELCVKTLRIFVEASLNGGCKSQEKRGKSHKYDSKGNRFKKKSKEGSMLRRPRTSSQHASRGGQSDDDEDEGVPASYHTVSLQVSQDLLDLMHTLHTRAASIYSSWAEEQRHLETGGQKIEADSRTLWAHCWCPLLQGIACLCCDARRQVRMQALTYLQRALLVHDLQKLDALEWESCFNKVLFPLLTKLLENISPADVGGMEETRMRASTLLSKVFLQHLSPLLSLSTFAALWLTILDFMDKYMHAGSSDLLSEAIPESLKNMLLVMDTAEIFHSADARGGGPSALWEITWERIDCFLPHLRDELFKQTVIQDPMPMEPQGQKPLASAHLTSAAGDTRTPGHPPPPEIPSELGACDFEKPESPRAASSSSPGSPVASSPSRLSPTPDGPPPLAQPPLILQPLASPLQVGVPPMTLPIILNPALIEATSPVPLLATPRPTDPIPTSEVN
row,Variant,effect of a mutation on the interaction
1,L461A;E462A;E463A;G464A;L465A,with no effect
2,L438A;L439A,with no effect
